We go through one substance from patent US20250129165A1.

In test [1] the target is human BTN3A as expressed on human cells (PBMCs, Daudi Burkitt's lymphoma cells, AML cells, monocytes) (human) (UniProt O00481). In words: cell-based or functional assay.
Test [2] shares this target. As to the kind of experiment: flow cytometry on human PBMCs.
The target is the same in test [3]. In words: flow cytometry on Daudi Burkitt's lymphoma cells. On the technique in general: In flow cytometry, cells or beads pass a laser one at a time.
In test [4] the target is cynomolgus BTN3A as expressed on cynomolgus PBMCs (cynomolgus). As to the kind of experiment: flow cytometry on cynomolgus PBMCs.
The target of test [5] is human BTN3A1 antigen (Sino Biological cat. no. 15973-H08H) (human) (UniProt O00481). In words: SPR, Biacore T200 multi-cycle kinetics; antibody captured on Protein A, BTN3A1 as analyte.
Chain of human BTN3A1 antigen (Sino Biological cat. no. 15973-H08H) (human) (O00481 30-254 limits assumed): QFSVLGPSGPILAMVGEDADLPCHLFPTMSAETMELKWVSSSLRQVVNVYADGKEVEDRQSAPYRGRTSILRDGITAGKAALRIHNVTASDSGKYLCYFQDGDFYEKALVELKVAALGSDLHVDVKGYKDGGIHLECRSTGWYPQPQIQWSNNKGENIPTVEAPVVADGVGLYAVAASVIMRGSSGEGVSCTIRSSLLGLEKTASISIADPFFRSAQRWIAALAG

As to mAb 20.1, parent murine antibody, in test [1], the Functional assay (AML resistant) (γδT cell-based, EC50, µg/mL) was 0.18 µg/mL; the Functional assay (AML sensitive) (γδT cell-based, EC50, µg/mL) is 0.05 µg/mL; the Functional assay (Daudi) (γδT cell-based, EC50, µg/mL) stood at 0.02 µg/mL; the Vγ9Vδ2 T cell degranulation with PBMCs from C. burnetii patients, 20.1 at 10 µg/ml was 24.1%. In test [1], this substance showed a Vγ9Vδ2 T cell degranulation with PBMCs from healthy donors, 20.1 at 10 µg/ml of 3.24%; a Vγ9Vδ2 T cell degranulation, Mean % CD107+ cells, monocytes infected with C. burnetii Guiana, 20.1 at 10 µg/ml (isotype 37.23) (% CD107+ cells) of 71.5; a Vγ9Vδ2 T cell degranulation, Mean % CD107+ cells, monocytes infected with C. burnetii NM1, 20.1 at 10 µg/ml (isotype 42.1) (% CD107+ cells) of 67.2; a Vγ9Vδ2 T cell degranulation, Mean % CD107+ cells, non stimulated monocytes, 20.1 at 10 µg/ml (isotype 8.59) (% CD107+ cells) of 45.8. Moreover, in test [2], the EC50 (usually the concentration at which the effect is half-maximal) is 3.02 µg/mL. For the same substance, in test [3], the EC50 was found to be 1.19 µg/mL. This substance also registered an EC50 in test [4] of 4.06 µg/mL. For the same substance, the Kd (as a rule, the constant that tells how readily two partners part at equilibrium) in test [5] is 0.234 nM.
